Assay results: PMC9633773, “Discovering cell-active BCL6 inhibitors: effectively combining biochemical HTS with multiple biophysical techniques, X-ray crystallography and cell-based assays” (Scientific Reports, 2022)

Biological target: Trx-6His-HRV3C-BCL6 (Thioredoxin-6His-tagged BCL6 BTB, uncleaved) (human), P41182
Assay: AlphaScreen or HTRF; TR-FRET competition: 1 or 10 nM Trx-6His-BCL6 BTB, 300 nM BCOR-A633, 0.5 or 1 nM anti-6His-Terbium cryptate; 25 mM Hepes pH 8, 100 mM NaCl, 0.05% Tween20, 0.5 mM TCEP, 0.05% BSA; 2 h at room temperature

IC50: 8 µM
Binder: RSEIISTAPSSWVVPGP (modifications not checked) [unlabelled BCOR peptide (17 residue BCOR peptide)]
